Holding throughout (test): SPR, mAb captured, C2 mutant analyte;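 note: Anti-C2 mAbs captured on goat anti-human IgG Biacore CM5 chips, alanine or serine C2 surface mutants flowed over at 37 °C, double-referenced sensorgrams fitted to a 1:1 binding model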
One assay has as its target T1, human C2 R493A (human, UniProt P06681 21-752).
T1 sequence: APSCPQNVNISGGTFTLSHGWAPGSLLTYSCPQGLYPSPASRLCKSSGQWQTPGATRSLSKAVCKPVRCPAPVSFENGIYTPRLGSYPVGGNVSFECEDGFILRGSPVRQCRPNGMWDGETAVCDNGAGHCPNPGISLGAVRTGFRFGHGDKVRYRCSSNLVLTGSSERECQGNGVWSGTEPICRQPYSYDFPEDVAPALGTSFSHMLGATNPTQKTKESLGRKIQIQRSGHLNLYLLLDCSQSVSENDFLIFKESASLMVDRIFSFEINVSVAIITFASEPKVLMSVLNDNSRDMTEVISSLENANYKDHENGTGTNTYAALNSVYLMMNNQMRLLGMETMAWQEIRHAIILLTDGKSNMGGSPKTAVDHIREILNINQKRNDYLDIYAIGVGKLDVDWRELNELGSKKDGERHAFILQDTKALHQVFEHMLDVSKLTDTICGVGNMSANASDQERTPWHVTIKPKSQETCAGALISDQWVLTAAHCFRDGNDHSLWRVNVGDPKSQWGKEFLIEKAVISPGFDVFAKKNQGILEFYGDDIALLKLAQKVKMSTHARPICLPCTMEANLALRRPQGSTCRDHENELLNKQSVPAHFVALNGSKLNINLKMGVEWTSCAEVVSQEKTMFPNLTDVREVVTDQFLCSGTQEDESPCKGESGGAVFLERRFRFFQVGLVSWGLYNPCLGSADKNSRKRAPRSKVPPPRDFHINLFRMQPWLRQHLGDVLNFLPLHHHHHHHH

Another assay deals with T2, human C2 G432A (human, UniProt P06681 21-752).
T2 sequence: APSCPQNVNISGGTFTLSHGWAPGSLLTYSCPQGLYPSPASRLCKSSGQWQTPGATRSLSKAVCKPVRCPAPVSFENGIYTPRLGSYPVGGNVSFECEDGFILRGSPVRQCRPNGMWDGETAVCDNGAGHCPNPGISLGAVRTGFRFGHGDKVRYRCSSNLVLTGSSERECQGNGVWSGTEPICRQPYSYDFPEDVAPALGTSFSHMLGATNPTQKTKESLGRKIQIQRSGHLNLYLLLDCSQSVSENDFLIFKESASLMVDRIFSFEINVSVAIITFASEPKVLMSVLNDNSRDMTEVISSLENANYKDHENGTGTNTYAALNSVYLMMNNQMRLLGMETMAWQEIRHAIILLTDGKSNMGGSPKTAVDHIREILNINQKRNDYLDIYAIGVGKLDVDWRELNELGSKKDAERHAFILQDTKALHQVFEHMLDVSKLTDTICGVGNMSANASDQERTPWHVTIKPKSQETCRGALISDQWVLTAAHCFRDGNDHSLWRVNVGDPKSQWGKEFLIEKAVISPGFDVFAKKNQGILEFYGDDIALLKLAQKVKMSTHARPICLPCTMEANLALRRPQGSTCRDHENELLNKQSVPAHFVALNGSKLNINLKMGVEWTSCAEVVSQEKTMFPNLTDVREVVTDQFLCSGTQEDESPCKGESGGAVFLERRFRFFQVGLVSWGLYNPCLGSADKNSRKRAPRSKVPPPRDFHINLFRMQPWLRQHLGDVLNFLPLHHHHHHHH

The next assay deals with T3, human C2 D454A (human, UniProt P06681 21-752).
T3 sequence: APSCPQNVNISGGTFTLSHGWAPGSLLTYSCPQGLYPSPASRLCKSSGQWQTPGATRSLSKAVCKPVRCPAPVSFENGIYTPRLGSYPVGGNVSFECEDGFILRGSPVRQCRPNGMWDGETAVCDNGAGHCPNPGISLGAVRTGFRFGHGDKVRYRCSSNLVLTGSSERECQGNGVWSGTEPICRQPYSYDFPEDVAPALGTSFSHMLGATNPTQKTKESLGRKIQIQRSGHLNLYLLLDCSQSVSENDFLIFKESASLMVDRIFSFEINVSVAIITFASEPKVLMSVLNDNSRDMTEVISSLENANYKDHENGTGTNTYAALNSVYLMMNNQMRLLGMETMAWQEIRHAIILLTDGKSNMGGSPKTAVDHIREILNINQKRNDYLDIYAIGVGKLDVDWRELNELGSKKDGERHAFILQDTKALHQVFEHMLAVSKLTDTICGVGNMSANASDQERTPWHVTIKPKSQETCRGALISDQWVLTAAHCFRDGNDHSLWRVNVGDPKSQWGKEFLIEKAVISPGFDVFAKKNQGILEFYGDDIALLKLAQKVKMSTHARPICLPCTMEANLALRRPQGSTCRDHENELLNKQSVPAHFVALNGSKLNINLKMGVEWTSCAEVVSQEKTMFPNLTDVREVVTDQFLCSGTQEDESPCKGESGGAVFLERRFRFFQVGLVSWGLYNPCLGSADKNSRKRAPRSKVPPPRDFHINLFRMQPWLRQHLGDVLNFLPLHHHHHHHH

Another assay has as its target T4, human C2 S469A (human, UniProt P06681 21-752).
T4 sequence: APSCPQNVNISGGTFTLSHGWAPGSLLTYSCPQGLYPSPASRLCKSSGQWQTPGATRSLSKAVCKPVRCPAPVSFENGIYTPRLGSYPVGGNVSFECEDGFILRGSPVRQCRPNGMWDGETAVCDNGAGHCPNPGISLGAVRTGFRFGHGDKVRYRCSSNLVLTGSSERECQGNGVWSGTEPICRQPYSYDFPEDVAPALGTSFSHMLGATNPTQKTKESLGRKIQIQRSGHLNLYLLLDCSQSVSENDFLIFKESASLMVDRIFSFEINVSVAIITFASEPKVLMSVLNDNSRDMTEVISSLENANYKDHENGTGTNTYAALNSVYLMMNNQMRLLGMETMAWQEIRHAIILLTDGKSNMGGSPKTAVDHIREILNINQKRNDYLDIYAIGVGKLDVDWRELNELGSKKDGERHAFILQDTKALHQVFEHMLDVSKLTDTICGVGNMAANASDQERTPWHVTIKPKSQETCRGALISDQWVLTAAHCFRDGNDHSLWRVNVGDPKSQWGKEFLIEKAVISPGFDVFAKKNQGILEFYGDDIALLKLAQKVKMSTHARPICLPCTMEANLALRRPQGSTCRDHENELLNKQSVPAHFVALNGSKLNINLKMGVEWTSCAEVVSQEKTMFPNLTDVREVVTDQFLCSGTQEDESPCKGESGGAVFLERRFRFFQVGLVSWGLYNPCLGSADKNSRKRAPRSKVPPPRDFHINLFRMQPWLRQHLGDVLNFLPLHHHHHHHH

B1: RF16-214 (antibody, V domains shown)
VH: EVQLLESGGGLVQPGGSLRLSCAASGFTFSWYQMMWVRQAPGKGLEWVSRIYPSGGGTAYADSVKGRFTISRDNSKNTLYLQMNSLRAEDTAVYYCARDAGYGDNWGQGTLVTVSS
VL: QSALTQPPSVSVSPGQTASITCSGDKLGEKYASWYQQKAGQSPVMVIYQDRKRPSGIPERFSGSNSGNTATLTISGTQAMDEADYYCQAWDTRAVVFGGGTKLTVLG
The term Kd denotes a measure of binding affinity in units of concentration. Read a low Kd as a tighter complex. Take B1: the Kd with human C2 R493A was found to be 25.3 nM; with human C2 G432A it was 26 nM; with human C2 D454A, 111 nM; with human C2 S469A, 106 nM.
